In publication PMC5578738 (eLife, 2017):

Target: T1, Side-VI (CG34114) complete ectodomain, biotinylated (SPR) (Drosophila melanogaster, UniProt Q0KI85 1-1087, biotin on the biotin acceptor peptide (E. coli BirA))
T1 construct: Side-VI (CG34114), Drosophila, complete ectodomain; source: Trichoplusia ni High Five cells, baculovirus, secreted, purified (Ni-NTA, SEC)
T1 sequence (looked up): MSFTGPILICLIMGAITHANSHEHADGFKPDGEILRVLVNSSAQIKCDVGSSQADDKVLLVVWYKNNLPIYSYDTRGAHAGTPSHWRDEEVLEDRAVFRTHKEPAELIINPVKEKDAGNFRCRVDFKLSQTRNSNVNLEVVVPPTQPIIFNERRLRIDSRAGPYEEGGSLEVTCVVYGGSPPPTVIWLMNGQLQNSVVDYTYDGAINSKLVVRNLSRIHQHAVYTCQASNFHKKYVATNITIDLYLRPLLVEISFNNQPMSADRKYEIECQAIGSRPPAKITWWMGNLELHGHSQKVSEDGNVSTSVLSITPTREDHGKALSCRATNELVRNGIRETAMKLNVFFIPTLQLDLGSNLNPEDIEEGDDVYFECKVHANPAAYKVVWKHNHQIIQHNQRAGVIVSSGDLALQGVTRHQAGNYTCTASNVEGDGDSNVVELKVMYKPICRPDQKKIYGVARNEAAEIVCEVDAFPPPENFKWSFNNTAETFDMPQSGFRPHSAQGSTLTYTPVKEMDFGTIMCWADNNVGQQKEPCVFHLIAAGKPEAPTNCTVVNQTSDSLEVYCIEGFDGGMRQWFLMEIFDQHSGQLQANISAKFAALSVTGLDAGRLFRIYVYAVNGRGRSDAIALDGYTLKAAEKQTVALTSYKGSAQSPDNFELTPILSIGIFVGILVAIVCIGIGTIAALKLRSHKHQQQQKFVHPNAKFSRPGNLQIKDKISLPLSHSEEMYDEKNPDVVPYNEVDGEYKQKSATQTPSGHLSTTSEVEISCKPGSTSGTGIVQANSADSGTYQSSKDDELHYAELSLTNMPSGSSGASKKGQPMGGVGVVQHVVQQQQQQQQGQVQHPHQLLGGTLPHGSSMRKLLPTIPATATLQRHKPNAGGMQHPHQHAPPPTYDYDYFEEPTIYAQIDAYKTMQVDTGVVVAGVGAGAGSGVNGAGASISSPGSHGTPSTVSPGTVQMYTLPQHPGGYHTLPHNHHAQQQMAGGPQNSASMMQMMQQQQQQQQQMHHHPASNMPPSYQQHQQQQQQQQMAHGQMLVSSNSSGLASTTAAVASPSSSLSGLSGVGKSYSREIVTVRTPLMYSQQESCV
Test: SPR; Biacore T100; biotinylated Side-VI captured on an SA chip, Beat-Va or Beat-Vb flowed over; HBSp+ with 500 mM NaCl and 15% glycerol; equilibrium responses fitted to a Langmuir isotherm
Conditions: both partners purified

B1: Beat-Va complete ectodomain (SPR) (domain or fragment)
chain: LFVTDISVPEIVDFRDNVTLSCSYDMRGHTLNSVKWYKDHEEFFRYSPLTSPIYMTFDVAGLQVLEGKYVCNESSCRLDLSLQGAKSTGLYKCEVSGDAPHFKLADKADNMTVAALPQNDPLIESFNSMYRMEEYLKATCISDFSSLPTRLTWYINGEQPLLGELYPTTDTSLAAHDYVLRRQRLQVQFFLQGQRFFQAGKILELKCVAEIENYPELRREKTLSASLSQYDNFNNQMPLRHANANSGSAQRSILCGRTSLISAFLAAILLIHCLRRPS
B1 gave a Kd of 760 nM and a koff of at least 0.5 s⁻¹.
